Drawing on patent US20240270821A1, “GIP/GLP1/GCG TRI-RECEPTOR AGONISTS AND USES THEREOF” (priority 2023, published 2024), this text covers Relative cAMP EC50 and cAMP Rel EC50, nM (1% HSA) for 10 molecules.

Substitutions are numbered along the chain they refer to.

T1: human GIP receptor (human) (UniProt P48546)
T1 sequence (looked up): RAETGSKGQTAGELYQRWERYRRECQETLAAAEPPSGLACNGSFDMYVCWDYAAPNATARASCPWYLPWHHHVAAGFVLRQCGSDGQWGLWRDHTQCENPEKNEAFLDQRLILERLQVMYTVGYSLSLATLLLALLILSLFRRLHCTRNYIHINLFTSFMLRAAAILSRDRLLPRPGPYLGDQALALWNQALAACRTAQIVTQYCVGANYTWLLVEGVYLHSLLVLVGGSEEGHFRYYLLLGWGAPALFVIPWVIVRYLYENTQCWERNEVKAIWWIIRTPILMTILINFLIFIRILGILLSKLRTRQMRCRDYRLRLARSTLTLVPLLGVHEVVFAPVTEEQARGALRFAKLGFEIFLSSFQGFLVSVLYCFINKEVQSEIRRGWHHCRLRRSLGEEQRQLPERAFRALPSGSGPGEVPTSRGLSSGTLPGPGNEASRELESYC

B1: Example 985 (peptide)
chain: YXQGTFTSDXSXXLDXKAQXAFIEYLIAGGPSSGEPPPSGTEE
modifications: non-natural residues, acylated Lys, C-terminal amide; synthetic construct; SITE 2: note = 2-Aminoisobutyric Acid; SITE 10: note = 3-(4-Pyridyl)-L-alanine; SITE 12: note = L-ornithine; SITE 13: note = alpha-methyl-leucine; SITE 16: note = L-ornithine; SITE 17: note = Lysine is chemically modified through conjugation of the epsilon-amino group of the Lys
B2: Example 1000 (peptide)
chain: B1 chain with A21Q, E35A, T41S
modifications: Lys acylated with (γGlu)2-C18 diacid; non-natural residues; C-amide; synthetic construct; SITE 2: note = 2-Aminoisobutyric Acid; SITE 10: note = 3-(4-Pyridyl)-L-alanine; SITE 12: note = L-ornithine; SITE 13: note = alpha-methyl-leucine; SITE 16: note = L-ornithine; SITE 17: note = Lysine is chemically modified through conjugation of the epsilon-amino group of the Lys
B3: Example 993 (peptide)
chain: B1 chain with A21E, Y25X, E35A, T41S
modifications: non-natural residues; lipidated Lys (γGlu)2-C18 diacid; C-term amide; synthetic construct; SITE 2: note = 2-Aminoisobutyric Acid; SITE 10: note = 3-(4-Pyridyl)-L-alanine; SITE 12: note = L-ornithine; SITE 13: note = alpha-methyl-leucine; SITE 16: note = L-ornithine; SITE 17: note = Lysine is chemically modified through conjugation of the epsilon-amino group of the Lys
B4: Example 992 (peptide)
chain: B1 chain with A21Q, Y25X, E35A, T41S
modifications: non-natural residues (Aib, 4Pal, Orn, Me4Pal, αMeY); lipidated Lys; C-amide; synthetic construct; SITE 2: note = 2-Aminoisobutyric Acid; SITE 10: note = 3-(4-Pyridyl)-L-alanine; SITE 12: note = L-ornithine; SITE 13: note = alpha-methyl-leucine; SITE 16: note = L-ornithine; SITE 17: note = Lysine is chemically modified through conjugation of the epsilon-amino group of the Lys
B5: Example 996 (peptide)
chain: B1 chain with A21E, Y25X, I27L, E35A, T41S
modifications: acylated lysine (γ-Glu)2 C18 diacid; non-natural residues; C-terminal amide; synthetic construct; SITE 2: note = 2-Aminoisobutyric Acid; SITE 10: note = 3-(4-Pyridyl)-L-alanine; SITE 12: note = L-ornithine; SITE 13: note = alpha-methyl-leucine; SITE 16: note = L-ornithine; SITE 17: note = Lysine is chemically modified through conjugation of the epsilon-amino group of the Lys
B6: Example 1004 (peptide)
chain: B1 chain with A21X, I27L, E35A, T41S
modifications: non-natural residues; C18 diacid-(γ-Glu)2 acyl on Lys; C-terminal amide; synthetic construct; SITE 2: note = 2-Aminoisobutyric Acid; SITE 10: note = 3-(4-Pyridyl)-L-alanine; SITE 12: note = L-ornithine; SITE 13: note = alpha-methyl-leucine; SITE 16: note = L-ornithine; SITE 17: note = Lysine is chemically modified through conjugation of the epsilon-amino group of the Lys
B7: Example 995 (peptide)
chain: B1 chain with A21Q, Y25X, I27L, E35A, T41S
modifications: non-natural residues, (γGlu)2-diacid acylated Lys, C-terminal amide; synthetic construct; SITE 2: note = 2-Aminoisobutyric Acid; SITE 10: note = 3-(4-Pyridyl)-L-alanine; SITE 12: note = L-ornithine; SITE 13: note = alpha-methyl-leucine; SITE 16: note = L-ornithine; SITE 17: note = Lysine is chemically modified through conjugation of the epsilon-amino group of the Lys
B8: Example 997 (peptide)
chain: B1 chain with A21X, Y25X, I27L, E35A, T41S
modifications: non-natural residues; lipidated Lys (γGlu)2-C18 diacid; C-term amide; synthetic construct; SITE 2: note = 2-Aminoisobutyric Acid; SITE 10: note = 3-(4-Pyridyl)-L-alanine; SITE 12: note = L-ornithine; SITE 13: note = alpha-methyl-leucine; SITE 16: note = L-ornithine; SITE 17: note = Lysine is chemically modified through conjugation of the epsilon-amino group of the Lys
B9: Example 1003 (peptide)
chain: B1 chain with A21E, I27L, E35A, T41S
modifications: (γGlu)2-C18 diacid on Lys; non-natural residues; amide; synthetic construct; SITE 2: note = 2-Aminoisobutyric Acid; SITE 10: note = 3-(4-Pyridyl)-L-alanine; SITE 12: note = L-ornithine; SITE 13: note = alpha-methyl-leucine; SITE 16: note = L-ornithine; SITE 17: note = Lysine is chemically modified through conjugation of the epsilon-amino group of the Lys
B10: Example 1002 (peptide)
chain: B1 chain with A21Q, I27L, E35A, T41S
modifications: non-natural residues; (γGlu)2-C18 diacid on Lys; C-terminal amide; synthetic construct; SITE 2: note = 2-Aminoisobutyric Acid; SITE 10: note = 3-(4-Pyridyl)-L-alanine; SITE 12: note = L-ornithine; SITE 13: note = alpha-methyl-leucine; SITE 16: note = L-ornithine; SITE 17: note = Lysine is chemically modified through conjugation of the epsilon-amino group of the Lys

Chain of human glucagon receptor (human) (P47871 26-477): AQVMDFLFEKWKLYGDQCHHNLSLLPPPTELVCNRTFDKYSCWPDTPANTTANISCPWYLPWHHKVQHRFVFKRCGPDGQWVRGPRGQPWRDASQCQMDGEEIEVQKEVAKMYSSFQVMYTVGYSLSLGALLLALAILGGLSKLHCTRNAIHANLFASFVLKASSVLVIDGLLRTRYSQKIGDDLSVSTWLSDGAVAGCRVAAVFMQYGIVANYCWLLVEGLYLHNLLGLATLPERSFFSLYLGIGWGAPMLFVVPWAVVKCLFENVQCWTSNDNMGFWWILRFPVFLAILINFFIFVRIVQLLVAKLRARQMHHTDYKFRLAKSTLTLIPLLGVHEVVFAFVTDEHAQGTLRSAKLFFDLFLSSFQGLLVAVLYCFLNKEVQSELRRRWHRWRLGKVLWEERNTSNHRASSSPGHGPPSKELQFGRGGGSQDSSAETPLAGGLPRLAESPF

The first test concerns the target human glucagon receptor (human) (UniProt P47871). The experiment in a line: cell-based or functional assay.
Turning to B1, the Relative cAMP EC50 was determined as 0.00541 µM and the cAMP Rel EC50, nM (1% HSA) is 374 nM.
Consider B2, for which the cAMP Rel EC50, nM (1% HSA) was 501 nM.
Same read-out and setting: next, B3: 1860 nM.
B4 showed a cAMP Rel EC50, nM (1% HSA) of 863 nM.
B5 registered a cAMP Rel EC50, nM (1% HSA) of 1160 nM.
Still for that read-out and setting: the value for B6 was 237 nM; that for B7 was 295 nM.
The molecule B8 registered a cAMP Rel EC50, nM (1% HSA) of 527 nM.
Consider B9, for which the cAMP Rel EC50, nM (1% HSA) stood at 371 nM.
In the case of B10, the cAMP Rel EC50, nM (1% HSA) was 197 nM.

The target of another test is hGLP-1R (Homo sapiens, UniProt P43220). The experiment in a line: cell-based or functional assay.
Chain of hGLP-1R (P43220 24-463): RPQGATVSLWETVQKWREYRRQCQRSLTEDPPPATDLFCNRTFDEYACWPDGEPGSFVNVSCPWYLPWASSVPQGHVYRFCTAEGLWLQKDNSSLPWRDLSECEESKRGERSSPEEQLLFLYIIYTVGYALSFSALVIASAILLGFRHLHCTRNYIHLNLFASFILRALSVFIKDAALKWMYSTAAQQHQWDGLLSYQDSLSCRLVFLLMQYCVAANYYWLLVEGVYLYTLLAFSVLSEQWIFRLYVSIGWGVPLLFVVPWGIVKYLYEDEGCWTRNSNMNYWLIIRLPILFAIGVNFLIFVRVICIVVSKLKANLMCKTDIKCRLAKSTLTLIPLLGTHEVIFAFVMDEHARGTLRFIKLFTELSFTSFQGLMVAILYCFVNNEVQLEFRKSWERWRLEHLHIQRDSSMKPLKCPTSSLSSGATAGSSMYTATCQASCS
Molecule B1 gave a Relative cAMP EC50 of 0.00293 µM and a cAMP Rel EC50, nM (1% HSA) of 217 nM.
B2 gave a cAMP Rel EC50, nM (1% HSA) of 279 nM.
On the same count and under the same terms, the value for B3 was 1210 nM; that for B4 was 643 nM; that for B5 was 4810 nM.
The same measure, in the same setting: the value for B6 was 973 nM.
The molecule B7 displayed a cAMP Rel EC50, nM (1% HSA) of 1660 nM.
The same measure, in the same setting: the value for B8 was 1880 nM; that for B9 was 1950 nM.
The same measure, in the same setting: the value for B10 was 1290 nM.

In a further test the target is T1, human GIP receptor (human). Put plainly: cell-based or functional assay.
Consider B1, for which the Relative cAMP EC50 was found to be 0.00034 µM and the cAMP Rel EC50, nM (1% HSA) is 24 nM.
In turn, B2 had a cAMP Rel EC50, nM (1% HSA) of 15.5 nM.
B3 yielded a cAMP Rel EC50, nM (1% HSA) of 14.5 nM.
In the case of B4, the cAMP Rel EC50, nM (1% HSA) is 12.5 nM.
The same measure, in the same setting: the value for B5 was 11.2 nM; that for B6 was 35.4 nM.
In turn, B7 returned a cAMP Rel EC50, nM (1% HSA) of 6.12 nM.
The molecule B8 returned a cAMP Rel EC50, nM (1% HSA) of 27.8 nM.
In turn, B9 came in with a cAMP Rel EC50, nM (1% HSA) of 15.9 nM.
Same read-out and setting: the value for B10 was 11.6 nM.
